The source of these data is publication PMC3616122, “Crystal Structure of KLHL3 in Complex with Cullin3” (PLoS ONE, 2013).

Series [1] concerns the target T1, Cul3^NTD, N-terminal domain of Cullin3 residues 20-381 with stabilizing mutations I342R/L346D (human, UniProt Q13618 20-381, I342R | L346D).
T1 construct: residues 26-379 are in the final model; also called Cul3 N-terminal domain; source: E. coli BL21 DE3 Codon+, purified (NiNTA, TEV cleavage, Superdex S75 SEC); not shown: thioredoxin, N-terminal, cleaved; His tag, N-terminal, cleaved
As to the kind of experiment: ITC; VP-ITC at 25°C in buffer A; KLHL3^BTB-BACK at 150 µM injected into Cul3^NTD at 15 µM; one-site binding model; a single titration for each protein. The settings on record: both partners purified.

Series [2] concerns the molecule itself. As to the kind of experiment: SEC; Superdex S75 in buffer A (20 mM Tris pH 7.5, 150 mM NaCl, 1 mM TCEP, 10% v/v glycerol), elution monitored at 280 nm; proteins alone and an equimolar mixture.
Series [3] addresses T1, Cul3^NTD, N-terminal domain of Cullin3 …. Description: crystal structure; KLHL3^BTB-BACK (SER version) and Cul3^NTD mixed 1:1 at 10 mg/ml total; hanging drop, 0.1 M sodium tartrate, 17% w/v PEG 3350, room temperature; 3.5 Å; one chain of each in the asymmetric unit, BTB homodimer by a crystallographic 2-fold. The settings on record: both partners purified.
Series [4] concerns the molecule itself. The series is described as above.

T1 sequence (Q13618 20-381 I342R/L346D): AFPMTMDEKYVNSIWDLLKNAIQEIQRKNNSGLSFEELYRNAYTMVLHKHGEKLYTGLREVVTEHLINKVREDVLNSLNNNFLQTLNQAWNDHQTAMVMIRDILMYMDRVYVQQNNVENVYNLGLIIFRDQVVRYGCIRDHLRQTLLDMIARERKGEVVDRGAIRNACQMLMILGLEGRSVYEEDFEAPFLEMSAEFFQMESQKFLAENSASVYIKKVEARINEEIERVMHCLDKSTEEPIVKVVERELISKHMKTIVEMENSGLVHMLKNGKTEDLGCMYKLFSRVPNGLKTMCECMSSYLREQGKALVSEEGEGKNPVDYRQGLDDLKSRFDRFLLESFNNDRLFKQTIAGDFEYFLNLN

B1: KLHL3^BTB-BACK, human KLHL3 residues 27-276, wild type (domain or fragment, UniProt Q9UH77 27-276, looked up)
chain: TVNPAHMGKAFKVMNELRSKQLLCDVMIVAEDVEIEAHRVVLAACSPYFCAMFTGDMSESKAKKIEIKDVDGQTLSKLIDYIYTAEIEVTEENVQVLLPAASLLQLMDVRQNCCDFLQSQLHPTNCLGIRAFADVHTCTDLLQQANAYAEQHFPEVMLGEEFLSLSLDQVCSLISSDKLTVSSEEKVFEAVISWINYEKETRLEHMAKLMEHVRLPLLPRDYLVQTVEEEALIKNNNTCKDFLIEAMKYH
notes: KLHL3, human, residues 27-276 (BTB and BACK domains), without the surface entropy reduction mutations; PDB 4HXI holds the same limits with K87A/K89A/K90A; Removal of the His tag is told only for Cul3^NTD; also called wild-type KLHL3^BTB-BACK; source: E. coli BL21 DE3 Codon+, purified (NiNTA, Superdex S75 SEC)
For the molecule B1, in series [1], the Kd was 108 nM and the “stoichiometry N” value stood at 1. In addition, in series [2], the “stoichiometry N” value came out at 2.

B2: KLHL3^BTB-BACK E85A (PHAII mutation) (domain or fragment, human, UniProt Q9UH77 27-276, looked up)
chain: TVNPAHMGKAFKVMNELRSKQLLCDVMIVAEDVEIEAHRVVLAACSPYFCAMFTGDMSASKAKKIEIKDVDGQTLSKLIDYIYTAEIEVTEENVQVLLPAASLLQLMDVRQNCCDFLQSQLHPTNCLGIRAFADVHTCTDLLQQANAYAEQHFPEVMLGEEFLSLSLDQVCSLISSDKLTVSSEEKVFEAVISWINYEKETRLEHMAKLMEHVRLPLLPRDYLVQTVEEEALIKNNNTCKDFLIEAMKYH
notes: KLHL3, human, residues 27-276, PHAII patient mutation E85A introduced into the wild-type KLHL3^BTB-BACK plasmid; PDB 4HXI holds the same limits with K87A/K89A/K90A and without E85A; source: E. coli BL21 DE3 Codon+, purified (NiNTA, Superdex S75 SEC)
B2: the “stoichiometry N” value in series [2] was 2.

B3: KLHL3^BTB-BACK M78V (PHAII mutation) (domain or fragment, human, UniProt Q9UH77 27-276, looked up)
chain: TVNPAHMGKAFKVMNELRSKQLLCDVMIVAEDVEIEAHRVVLAACSPYFCAVFTGDMSESKAKKIEIKDVDGQTLSKLIDYIYTAEIEVTEENVQVLLPAASLLQLMDVRQNCCDFLQSQLHPTNCLGIRAFADVHTCTDLLQQANAYAEQHFPEVMLGEEFLSLSLDQVCSLISSDKLTVSSEEKVFEAVISWINYEKETRLEHMAKLMEHVRLPLLPRDYLVQTVEEEALIKNNNTCKDFLIEAMKYH
notes: KLHL3, human, residues 27-276, PHAII patient mutation M78V introduced into the wild-type KLHL3^BTB-BACK plasmid; PDB 4HXI holds the same limits with K87A/K89A/K90A and without M78V; source: E. coli BL21 DE3 Codon+, purified (NiNTA, Superdex S75 SEC)
On to B3, for which the “stoichiometry N” value in series [2] worked out at 2.

B4: KLHL3^BTB-BACK A77E (PHAII mutation) (domain or fragment, human, UniProt Q9UH77 27-276, looked up)
chain: TVNPAHMGKAFKVMNELRSKQLLCDVMIVAEDVEIEAHRVVLAACSPYFCEMFTGDMSESKAKKIEIKDVDGQTLSKLIDYIYTAEIEVTEENVQVLLPAASLLQLMDVRQNCCDFLQSQLHPTNCLGIRAFADVHTCTDLLQQANAYAEQHFPEVMLGEEFLSLSLDQVCSLISSDKLTVSSEEKVFEAVISWINYEKETRLEHMAKLMEHVRLPLLPRDYLVQTVEEEALIKNNNTCKDFLIEAMKYH
notes: KLHL3, human, residues 27-276, PHAII patient mutation A77E introduced into the wild-type KLHL3^BTB-BACK plasmid; PDB 4HXI holds the same limits with K87A/K89A/K90A and without A77E; source: E. coli BL21 DE3 Codon+, purified (NiNTA, Superdex S75 SEC)
In the case of B4, the “stoichiometry N” value in series [2] was 2.

B5: KLHL3^BTB-BACK C164F (PHAII mutation) (domain or fragment, human, UniProt Q9UH77 27-276, looked up)
chain: TVNPAHMGKAFKVMNELRSKQLLCDVMIVAEDVEIEAHRVVLAACSPYFCAMFTGDMSESKAKKIEIKDVDGQTLSKLIDYIYTAEIEVTEENVQVLLPAASLLQLMDVRQNCCDFLQSQLHPTNCLGIRAFADVHTFTDLLQQANAYAEQHFPEVMLGEEFLSLSLDQVCSLISSDKLTVSSEEKVFEAVISWINYEKETRLEHMAKLMEHVRLPLLPRDYLVQTVEEEALIKNNNTCKDFLIEAMKYH
notes: KLHL3, human, residues 27-276, PHAII patient mutation C164F introduced into the wild-type KLHL3^BTB-BACK plasmid; PDB 4HXI holds the same limits with K87A/K89A/K90A and without C164F; source: E. coli BL21 DE3 Codon+, purified (NiNTA, Superdex S75 SEC)
B5 had a Kd in series [1] of 4100 nM. The “stoichiometry N” value in series [2] was determined as 2.

B6: KLHL3^BTB-BACK, human KLHL3 residues 27-276, surface entropy reduction version K87A/K89A/K90A used in crystallization (domain or fragment, UniProt Q9UH77 27-276, looked up)
chain: TVNPAHMGKAFKVMNELRSKQLLCDVMIVAEDVEIEAHRVVLAACSPYFCAMFTGDMSESAAAAIEIKDVDGQTLSKLIDYIYTAEIEVTEENVQVLLPAASLLQLMDVRQNCCDFLQSQLHPTNCLGIRAFADVHTCTDLLQQANAYAEQHFPEVMLGEEFLSLSLDQVCSLISSDKLTVSSEEKVFEAVISWINYEKETRLEHMAKLMEHVRLPLLPRDYLVQTVEEEALIKNNNTCKDFLIEAMKYH
notes: KLHL3, human, residues 27-276 (BTB and BACK domains) with three lysines mutated to alanine for crystallization; residues 32-223 are in the final model; also called KLHL3^BTB-BACK (SER); source: E. coli BL21 DE3 Codon+, purified (NiNTA, Superdex S75 SEC)
For B6, the binding result in series [3] and in series [4] was “binds” each time.
